# Entries after “also recorded” stand apart in the source; their conditions may differ. Read-outs that look alike come from different tables or passages of the source.
# Columns and labels:
# CC1=CC(=O)c2ccccc2C1=O = experiment: purified protein, by the assay type; settings: pH 7.0, 37.0 °C
# [1] = Nitroreductase enzyme assay with CB 1954 as substrate (HPLC); type: biochemical; settings: for CB1954 kcat: Table 1
# [2] = Nitroreductase enzyme assay with SN 23862 as substrate (HPLC); type: biochemical
# [3] = Quinone reductase assay with menadione, cytochrome c as terminal electron acceptor; type: biochemical; settings: for Quinone reductase: Table 6
# Method: (§1) Assays were carried out spectrophotometrically at 37° C. in 10 mM Tris pH 7.5 using cytochrome c as terminal electron acceptor.
# [4] = Flavin reductase assay with FMN and FAD; type: biochemical; settings: for Flavin reductase: Table 6
# Method: as §1
# [5] = type: biochemical; settings: Table 6
# [6] = type: biochemical; settings: for Cofactor: Table 6
# [7] = test system: recombinant enzymes (antigens); experiment: Polyclonal antisera titres by ELISA; type: binding; settings: rabbit antiserum; for Post-boost titre: 10 days after booster; for Pre-boost titre (50%): after 8 weeks
# Method: Polyclonal antisera were raised against recombinant enzymes by immunising rabbits with […] of protein in 50% PBS:50% Freund's complete adjuvant, total volume 400 μl. Blood was collected by ear bleed after 6-8 weeks and again 10 days after a booster immunisation of protein, and titre assessed by ELISA. 96-well plates were coated with 1 μg ml^−1 of the proteins and blocked with 10% v/v foetal calf serum (FCS), antibodies were diluted in assay buffer (1% FCS) and applied in doubling dilutions across the plate from 1 in 100 to 1 in 51 200 or 1 in 150 to 1 in 76 800. A secondary antibody conjugated with HRP (dilution 1 in 10 000) was used to develop the assay with 3,3′,5,5′-tetramethylbenzidine (TMB) as substrate.
# Antisera to E. coli B NfnB and six novel proteins (Haemophilus influenzae and Campylobacter jejuni NfnB homologues, YdgI and YodC of Bacillus subtilis, YwrO of B. amyloliquefaciens and Porphyromonas gingivalis YwrO homologue) have been raised in rabbits by inoculation with 100 μg of protein in PBS+ Freund's complete adjuvant. Titres were assessed by ELISA after 8 weeks, and 10 days after a booster inoculation of a further 100 μg of protein per rabbit. Pre-immune sera were also tested.
# 96 well plates were coated overnight at 4° C. with the antigens at 1 μg/ml. After washing and blocking antisera were added in doubling dilutions in an appropriate range across the plates. The plates were developed using goat anti-rabbit IgG peroxidase conjugate with TMB as substrate, and read at 450 nm.
# [8] = substrate: CC1=CC(=O)c2ccccc2C1=O; experiment: Substrate and cofactor specificity for YdgI; type: biochemical, Bacillus subtilis; settings: other: cofactor NADH, 37° C., 10 mM Tris pH 7.5, pH 7.5
# Method: (§2) Quantitative assays using CB 1954 or SN 23862 as substrate were carried out at 37° C. by HPLC as previously described (2) (3). […] Incubation times varied according to the enzyme activity being studied.
# [9] = substrate: Cc1cc2nc3c(=O)[nH]c(=O)nc-3n(C[C@H](O)[C@H](O)[C@H](O)COP(=O)(O)O)c2cc1C; experiment: Substrate and cofactor specificity for YdgI; type: biochemical, Bacillus subtilis
# Method: as §2
# [10] = substrate: Cc1cc2nc3c(=O)[nH]c(=O)nc-3n(C[C@H](O)[C@H](O)[C@H](O)COP(=O)(O)OP(=O)(O)OC[C@H]3O[C@@H](n4cnc5c(N)ncnc54)[C@H](O)[C@@H]3O)c2cc1C; experiment: Substrate and cofactor specificity for YdgI; type: biochemical, Bacillus subtilis; settings: other: cofactor NADH, 37° C., 10 mM Tris pH 7.5, pH 7.5
# Method: as §2
# V79 cells = experiment: In vitro cytotoxicity test, prodrug + enzyme + cofactor, SRB assay; type: cell-based
# Method: Microtitre plates (96 well) were obtained pre-seeded with V79 cells at 10,000 cells/ml (European Collection of Animal Cell Cultures, ECACC) in DMEM+10% foetal calf serum. All treatments were prepared on duplicate plates and transferred to the cells prior to adding enzyme (10 μl) to the appropriate wells. […] Enzymes were diluted in sterile PBS. All aqueous solutions were filter sterilised before use and operations carried out aseptically in a laminar flow hood. […] Cytotoxicity was quantified by sulphorhodamine B (SRB) assay. Briefly, the growth medium was removed and the cells fixed by addition of 100 μl per well of cold 10% TCA for 30 min. The TCA was removed and the fixed cells washed with water before adding 100 μl per well of 0.4% dye in 1% acetic acid and incubating at room temperature for 30 min. Excess dye was removed and the wells washed 4 times with 1% acetic acid. After air drying at room temperature the dye was solubilised by adding 100 μl of 10 mM Tris to each well and shaking for 15 min. […] Cytotoxicity towards treated cells was expressed as % of A492 of untreated controls and statistical analysis was performed using the Mann-Whitney test. ED50's were caculated using probit analysis.
# [11] = test system: recombinant enzymes (antigens); experiment: Western blots of antigens with rabbit antisera; type: binding; settings: antisera 1/10000 or 1/20000, ECL detection
# Method: Recombinant enzymes were run on SDS PAGE 4-20% gradient at 0.05, 0.5, 5, 50 and 500 ng with 500 ng of the other antigens to test cross-reactivity. The antisera were added at a dilution of 1/10 000 or 1/20 000. Secondary antibody dilutions were as shown above and detection was by ECL (Amersham).
# Antigens were run on SDS PAGE 4-20% gradient at 0.05, 0.5, 5, 50 and 500 ng with 500 ng of other antigens to test cross-reactivity. The antisera were added at a dilution of 1/10000 (α-P. gingivalis YwrO, α-YwrO BAM and α-H. influenzae NfnB) or 1/20000 (α-E. coli B NfnB and α-YdgI). Secondary antibody dilutions were as shown above and detection was by ECL.
# [12] = Table 2, recombinant B. subtilis enzymes, crude lysates
# [13] = Table 6, 37° C., read-out: Km CB 1954
# [14] = other: cofactor NADH, 37° C., 10 mM Tris pH 7.5, pH 7.5
Molecule,kcat for CB1954 (text) [1],reduction of CB1954: activity and product formed [1],"Km [1, 13]","CB 1954 product ([1]; Table 6, recombinant enzymes)",activity with SN23862 [2],activity with menadione / quinone reductase [3],Quinone reductase [3],flavin reductase activity [4],Flavin reductase [4],Azo-Reductase [5],Cofactor [6],Post-boost titre [7],Pre-boost titre (50%) [7],CB1954 kcat [1],"CB 1954 product ([1]; Table 1, purified enzymes)",SN23862 kcat ([2]; Table 1),amount of antigen detected by its antiserum in Western blot [11],also measured
H. influenzae NfnB (Haemophilus influenzae Rd KW20),–,–,–,–,–,–,–,–,–,–,–,–,–,–,–,–,–,Km (CC1=CC(=O)c2ccccc2C1=O; other: 1 mM NADH): 0.8 ± 0.2 μM μM; Km (CC1=CC(=O)c2ccccc2C1=O; other: 1 mM NADPH): 9.0 ± 0.6 μM μM
"YdgI (Bacillus subtilis subsp. subtilis str. 168) (protein, made in house; host or cells: E. coli (pMTL1015; HMS174)) MIKTNDFMEIMKGRRSIRNYDPAVKISKEEMTEILEEATTAPSSVNAQPWRFLVIDSPEGKEKLAPLASFNQTQVTTSSAVIAVFADMNNADYLEEIYSKAVELGYMPQEVKDRQIAALTAHFEKLPAQVNRETILIDGGLVSMQLMLTARAHGYDTNPIGGYDKENIAETFGLDKERYVPVMLLSIGKAADEGYASYRLPIDTIAEWK",30.3 s⁻¹,both the 2HX and 4HX derivatives,3860 µM,4HX,active against both CB1954 and SN23862,high affinity for menadione and flavins,Yes,high affinity for menadione and flavins,Yes,Yes,NADPH,25000,4900,–,–,–,–,"kcat (CB 1954) [1]: 30.3 s⁻¹; CB1954 (product formed / activity) [1, 12]: 2/4HX; kcat for CB1954 (text) ([1]; listed as SEQ ID NO: 9): about 15; SN23862 (activity) [2, 12]: active; SN 23862 acitvity ([2]; Table 6): Yes; activity with SN23862 ([2]; listed as YdgI BS): did not show Michaelis-Menten kinetics; Km [8]: 127.0 ± 10 µM; kcat [8]: 628 ± 16.8 s⁻¹; kcat/Km [8]: 4.94e+06 M⁻¹ s⁻¹; Km [9, 14]: 158.0 ± 16 µM; kcat [9, 14]: 3000 ± 94.8 s⁻¹; kcat/Km [9, 14]: 1.9e+07 M⁻¹ s⁻¹; Km ([9]; other: cofactor NADPH, 37.0 °C): 12.0 ± 1.4 µM; kcat ([9]; other: cofactor NADPH, 37.0 °C): 345 ± 7.6 s⁻¹; kcat/Km ([9]; other: cofactor NADPH, 37.0 °C): 2.87e+07 M⁻¹ s⁻¹; Km [10]: 150.0 ± 19.0 µM; kcat [10]: 2580 ± 79 s⁻¹; kcat/Km [10]: 1.72e+07 M⁻¹ s⁻¹"
"H. influenzae NfnB: nitroreductase from H. influenzae, SEQ ID NO: 17 (protein, listed as Haemophilus influenzae) MTQLTREQVLELFHQRSSTRYYDPTKKISDEDFECILECGRLSPSSVGSEPWKFLVIQNKTLREKMKPFSWGMINQLDNCSHLVVILAKKNARYDSPFFVDVMARKGLNAEQQQAALTKYKALQEEDMKLLENDRTLFDWCSKQTYIALANMLTGASALGIDSCPIEGFHYDKMNECLAEEGLFDPQEYAVSVAATFGYRSRDIAKKSRKGLDEVVKWVG",–,form the 4HX reduction product of CB1954,690 µM,4HX,weak activity with SN23862,lacks activity with the quinone menadione,Yes,–,Weak,No,NADPH,760,180,–,–,–,–,"kcat (CB 1954) ([1]; Table 6, 37° C.): 56.2 s⁻¹; SN 23862 acitvity, second number of the cell (kcat) ([2]; Table 6, HPLC assay): 39.8; Km ([2]; Table 6, HPLC assay, read-out: SN 23862 acitvity, first number of the cell (Km)): 3360 µM; flavin reductase activity ([4]; listed as H. influenzae NfnB homologue): lacks activity with the quinone menadione and flavins FMN or FAD; also recorded: little activity; in vitro cytotoxicity of CB 1954 with enzyme (V79 cells; FIG. 3): most potent; in vitro cytotoxicity of SN 23862 with enzyme (V79 cells; FIG. 4): most potent"
E. coli NfnB: the known E. coli B nitroreductase enzyme (NfnB) (protein) MDIISVALKRHSTKAFDASKKLTPEQAEQIKTLLQYSPSSTNSQPWHFIVASTEEGKARVAKSAAGNYVFNERKMLDASHVVVFCAKTAMDDVWLKLVVDQEDADGRFATPEAKAANDKGRKFFADMHRKDLHDDAEWMAKQVYLNVGNFLLGVAALGLDAVPIEGFDAAILDAEFGLKEKGYTSLVVVPVGHHSVEDFNATLPKSRLPQNITLTEV,6 s⁻¹,–,–,–,–,–,–,–,–,–,–,–,–,6 s⁻¹,2/4HX,26.4 s⁻¹,5 ng,"kcat for CB1954 (text) ([1]; listed as E. coli enzyme): about 6; Km ([1]; summary statement, read-out: Km for CB1954): ~862 µM"
"Bam YwrO: nitroreductase from B. amyloliquefaciens, SEQ ID NO: 2 (protein, listed as Bacillus amyloliquefaciens) VKVLVLAVHPDMENSAVNKAWAEELKKHDELTVRELYKEYPDGQIDAEKERQLCEQYDRIVFQFPLYWYSAPPLLKTWMDHVLSYGWAYGSKGKALHGKELMLAVSVGAGEDAYQAGGSNHFTLSELLRPFQAMANFTGMTYLPAFALYGVNGADATDIHDNAKRLAAYIKKSF",8.2 s⁻¹,4HX product only,–,–,–,–,–,has azoreductase and flavin reductase activity,–,–,–,2800,1200,2 s⁻¹,4HX,inactive,500 ng,Km ([1]; read-out: Km for CB1954): 617 µM; SN23862 Km ([2]; Table 1): inactive; activity with SN23862 ([2]; listed as YwrO BAM): not SN23862; activity with SN23862 ([2]; listed as YwrO of B. amyloliquefaciens): inactive with this substrate; Km ([3]; read-out: Km for menadione): 3.4 µM; Km ([4]; read-out: Km for FAD): 209 µM; Km ([4]; read-out: Km for FMN): 53 µM; Km ([6]; read-out: Km for NADPH as cofactor): 40 µM
